In US20110008406A1:

Assays:
[1] = target: T1, silk fibroin, sericin-depleted, from degummed Bombyx mori silk (dissolved in 9.3 M LiBr, dialysed, then gelled or precipitated) (Bombyx mori), P05790; experiment: HPLC and dry mass of silk precipitates, over all formulations
[2] = target: T1, silk fibroin, sericin-depleted, from …; experiment: HPLC of 23RGD extracted from the final rinsed 23RGD-enhanced silk gel
[3] = target: T1, silk fibroin, sericin-depleted, from …; experiment: HPLC of 23RGD extracted from lyophilized silk precipitate, formulation RHI
[4] = target: T1, silk fibroin, sericin-depleted, from …; experiment: HPLC of 23RGD extracted from lyophilized silk precipitate, formulation AVHI
[5] = target: T1, silk fibroin, sericin-depleted, from …; experiment: HPLC of 23RGD extracted from lyophilized silk precipitate, formulation AVLO
[6] = target: T1, silk fibroin, sericin-depleted, from …; experiment: HPLC of 23RGD extracted from lyophilized silk precipitate, formulation BASE
[7] = target: T1, silk fibroin, sericin-depleted, from …; experiment: HPLC of 23RGD extracted from lyophilized silk precipitate, formulation SCLO
[8] = target: T1, silk fibroin, sericin-depleted, from …; experiment: HPLC of 23RGD extracted from lyophilized silk precipitate, formulation SCVLO
[9] = target: T1, silk fibroin, sericin-depleted, from …; experiment: HPLC of 23RGD extracted from silk precipitates; plateau over the formulations
[10] = target: T1, silk fibroin, sericin-depleted, from …; experiment: HPLC of 23RGD extracted from lyophilized silk precipitate, formulation 0.6S 3R 10:1
[11] = target: T1, silk fibroin, sericin-depleted, from …; experiment: HPLC of 23RGD extracted from lyophilized silk precipitate, formulation printed as RLO
[12] = target: T1, silk fibroin, sericin-depleted, from …; experiment: HPLC of 23RGD extracted from lyophilized silk precipitate, formulation printed as RMED
[13] = target: T1, silk fibroin, sericin-depleted, from …; experiment: HPLC of 23RGD extracted from silk precipitate, formulation AVLO, against the calculated molar ratio
[14] = target: T1, silk fibroin, sericin-depleted, from …; experiment: HPLC of 23RGD extracted from silk precipitate, formulation BASE, against the calculated molar ratio
[15] = target: T1, silk fibroin, sericin-depleted, from …; experiment: HPLC of 23RGD extracted from silk precipitate, formulation ECLO, against the calculated molar ratio
[16] = target: T1, silk fibroin, sericin-depleted, from …; experiment: HPLC of 23RGD extracted from silk precipitate, formulation SCLO, against the calculated molar ratio
[17] = target: T1, silk fibroin, sericin-depleted, from …; experiment: HPLC of 23RGD extracted from silk precipitate, formulation printed as RMED, against the calculated molar ratio

- percent of 23RGD precipitated with silk [1]: 5 to 30%
- 23RGD:silk molar ratio (bound) (mol 23RGD per mol silk) [2]: 3.35
- 23RGD:silk ratio (bound) (mol 23RGD per mol silk) [3]: 10.7
- 23RGD:silk ratio (bound) (mol 23RGD per mol silk) [4]: 10.5
- 23RGD:silk ratio (bound) (mol 23RGD per mol silk) [5]: 5.2
- 23RGD:silk ratio (bound) (mol 23RGD per mol silk) [6]: 8.7
- 23RGD:silk ratio (bound) (mol 23RGD per mol silk) [7]: 9.9
- 23RGD:silk ratio (bound) (mol 23RGD per mol silk) [8]: 11
- apparent saturation, RGD molecules per molecule of silk (mol 23RGD per mol silk) [9]: 10
- 23RGD:silk ratio (bound) (mol 23RGD per mol silk) [10]: 10
- 23RGD:silk ratio (bound) (mol 23RGD per mol silk) [11]: 1.1
- 23RGD:silk ratio (bound) (mol 23RGD per mol silk) [12]: 6.95
- bound RGD, fold of the calculated (expected) amount [13]: 2 fold
- bound RGD, fold of the calculated (expected) amount [14]: 2 fold
- bound RGD, fold of the calculated (expected) amount [15]: 1.5 fold
- bound RGD, fold of the calculated (expected) amount [16]: 2 fold
- bound RGD, fold of the calculated (expected) amount [17]: 2 fold
B1: 23RGD peptide (amphiphilic peptide: RGD motif, spacer region, leucine tail; 23 amino acids) (peptide)
peptide: GRGDIPASSKGGGGSRLLLLLLR
modifications: not checked
